Assay results: PMC10480186, “The self-association equilibrium of DNAJA2 regulates its interaction with unfolded substrate proteins and with Hsc70” (Nature Communications, 2023)

B1: DNAJA2ΔZFLR (natural protein)
chain: not shown
notes: DNAJA2, human, lacking the Zn-finger-like region (deletion of residues 141 to 209)
B2: DNAJA2ΔG/FR (natural protein)
chain: not shown
notes: DNAJA2, human, lacking the glycine/phenylalanine-rich region (deletion of residues 77 to 101); For cryo-EM and XL-MS the sample was cross-linked with BS3; also called DnaJA2∆G/FR; DnJA2ΔG/FR
B3: Glucose-6-phosphate dehydrogenase (G6PDH) from Leuconostoc mesenteroides, aggregated (enzyme, UniProt P11411 1-486, looked up)
chain: MVSEIKTLVTFFGGTGDLAKRKLYPSVFNLYKKGYLQKHFAIVGTARQALNDDEFKQLVRDSIKDFTDDQAQAEAFIEHFSYRAHDVTDAASYAVLKEAIEEAADKFDIDGNRIFYMSVAPRFFGTIAKYLKSEGLLADTGYNRLMIEKPFGTSYDTAAELQNDLENAFDDNQLFRIDHYLGKEMVQNIAALRFGNPIFDAAWNKDYIKNVQVTLSEVLGVEERAGYYDTAGALLDMIQNHTMQIVGWLAMEKPESFTDKDIRAAKNAAFNALKIYDEAEVNKYFVRAQYGAGDSADFKPYLEELDVPADSKNNTFIAGELQFDLPRWEGVPFYVRSGKRLAAKQTRVDIVFKAGTFNFGSEQEAQEAVLSIIIDPKGAIELKLNAKSVEDAFNTRTIDLGWTVSDEDKKNTPEPYERMIHDTMNGDGSNFADWNGVSIAWKFVDAISAVYTADKAPLETYKSGSMGPEASDKLLAANGDAWVFKG
notes: glucose-6-phosphate dehydrogenase, Leuconostoc mesenteroides; Thermally denatured and aggregated before the co-sedimentation assay; native G6PDH served as the control that was subtracted; also called G6PDH aggregates; source: bought: Worthington
B4: DNAJA2ΔCD (domain or fragment)
chain: not shown
notes: DNAJA2, human, lacking the disordered C-terminal domain (deletion of residues 361 to 412, V361 to Q412)
B5: DNAJA2wt (natural protein)
chain: not shown
notes: DNAJA2, human class A J-domain protein; last residue Q412; Dimers that assemble into tubular oligomers; For cryo-EM and XL-MS the sample was cross-linked with BS3; The Ni-NTA-Nanogold is said to label Hsc70 specifically, so the His6-SUMO tag was probably removed; also called DnaJ2A
B6: DNAJA2LQ (natural protein)
chain: not shown
notes: DNAJA2, human, with L135 and Q136 in the CTDI mutated to Glu

How the values were obtained:
[1] = target: the molecule itself; assay: cross-linking; 2 µM protein, 0.005% glutaraldehyde, 15 min at 4 °C in 20 mM Hepes pH 7.6, 50 mM KCl, 5 mM MgCl2, 2 mM DTT; SDS-PAGE, Coomassie; monomer, dimer and oligomer bands
[2] = target: the molecule itself; assay: dynamic light scattering; 30 µM protein in 20 mM Hepes-KOH pH 7.6, 50 mM KCl, 2 mM DTT; volume-based size distributions; the wt also with 300 mM NaCl, 5% 1,6-hexanediol or at 40 °C, which shift it to smaller particles; self-association: dimer and dimers to larger oligomers
[3] = target: the molecule itself; assay: negative-stain electron microscopy; samples on carbon-coated grids, 2% uranyl acetate; 15 µM protein; tubular oligomers of dimers
Hsc70wt = target: T1, Hsc70wt (human, UniProt P11142 1-646); assay: co-sedimentation; 2 µM Hsc70, 1 µM J-domain protein (DNAJB1, DNAJA2ΔCD or DNAJA2wt), 0.4 µM Apg2, 0.4 µM aggregated or native G6PDH; pellets on SDS-PAGE, band intensities; amounts in pellets with native G6PDH subtracted; conditions: both partners purified
T1 construct: Hsc70 (HSPA8), the constitutively expressed Hsp70 isoform, cDNA from Addgene; also called HSPA8
T1 sequence (P11142 whole entry, canonical isoform): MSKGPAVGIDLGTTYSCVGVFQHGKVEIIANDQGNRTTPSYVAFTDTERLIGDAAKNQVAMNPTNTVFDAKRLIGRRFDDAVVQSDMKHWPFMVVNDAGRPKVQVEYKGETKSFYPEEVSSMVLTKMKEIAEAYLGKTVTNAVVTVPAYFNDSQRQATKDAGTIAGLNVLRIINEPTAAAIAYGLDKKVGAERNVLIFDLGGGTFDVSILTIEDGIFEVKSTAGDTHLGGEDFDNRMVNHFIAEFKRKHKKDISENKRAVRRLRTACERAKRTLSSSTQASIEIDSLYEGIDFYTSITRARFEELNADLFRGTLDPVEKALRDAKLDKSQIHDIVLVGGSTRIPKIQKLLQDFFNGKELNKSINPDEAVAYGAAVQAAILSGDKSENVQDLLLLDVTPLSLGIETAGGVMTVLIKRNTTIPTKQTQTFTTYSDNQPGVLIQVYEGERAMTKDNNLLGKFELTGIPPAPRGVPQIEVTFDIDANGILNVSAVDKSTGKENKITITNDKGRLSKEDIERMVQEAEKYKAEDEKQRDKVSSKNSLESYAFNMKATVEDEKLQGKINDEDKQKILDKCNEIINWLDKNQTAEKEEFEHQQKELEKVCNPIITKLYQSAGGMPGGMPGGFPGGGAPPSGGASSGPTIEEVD

[4] = target: B3; assay: as above; conditions: both partners purified
[5] = target: the molecule itself; assay: static light scattering; 15 µM DNAJA2 in refolding buffer (20 mM Hepes-KOH pH 7.6, 50 mM KCl, 5 mM MgCl2, 2 mM DTT) heated to 40 °C and cooled back to 25 °C; oligomers to dimers

Binder: B1
- stoichiometry N [1]: ≤ 2
- stoichiometry N [2]: 2

Binder: B2
- binding result [3]: binds

Binder: B3
- binding result (Hsc70wt): binds

Binder: B4
- binding result [4]: binds
- stoichiometry N [1]: 2

Binder: B5
- fold reduction of the aggregate-bound amount against DNAJB1 [4]: ~2 fold
- t1/2 of the temperature-induced dissociation of the oligomers (40 °C) [5]: 2.3 min

Binder: B6
- stoichiometry N [1]: ≤ 2
